Laboratory results from patent US20120171699A1 (Merck KGaA, published 2012).

Experiments:
[1] = target: T1, integrin αvβ5 on cells (human, UniProt P06756 31-1048; P18084 24-799); assay: live cell flow cytometry on HT-29, 10 µg/ml antibody; relative to second layer alone
T1 construct: whole, on cells; Endogenous integrin of live cells (FACS) or of FFPE cells and xenografts (IHC)

[2] = target: T1, integrin αvβ5 on cells; assay: live cell flow cytometry on A549, 10 µg/ml antibody; relative to second layer alone
[3] = target: T1, integrin αvβ5 on cells; assay: live cell flow cytometry on HUVEC, 10 µg/ml antibody; relative to second layer alone
[4] = target: T1, integrin αvβ5 on cells; assay: live cell flow cytometry on M21, 10 µg/ml antibody; relative to second layer alone
[5] = target: T1, integrin αvβ5 on cells; assay: live cell flow cytometry on M24Met, 10 µg/ml antibody; relative to second layer alone
[6] = target: integrin β1 chain on cells (UniProt P05556); assay: live cell flow cytometry on HT-29, 10 µg/ml antibody; relative to second layer alone
[7] = target: integrin β1 chain on cells (UniProt P05556); assay: live cell flow cytometry on A549, 10 µg/ml antibody; relative to second layer alone
[8] = target: integrin β1 chain on cells (UniProt P05556); assay: live cell flow cytometry on M21, 10 µg/ml antibody; relative to second layer alone
[9] = target: integrin β1 chain on cells (UniProt P05556); assay: live cell flow cytometry on M24Met, 10 µg/ml antibody; relative to second layer alone
[10] = target: integrin β1 chain on cells (UniProt P05556); assay: live cell flow cytometry on HUVEC, 10 µg/ml antibody; relative to second layer alone
[11] = target: integrin β1 chain on cells (UniProt P05556); assay: live cell flow cytometry on M21-L, 10 µg/ml antibody; relative to second layer alone
[12] = target: integrin β1 chain on cells (UniProt P05556); assay: live cell flow cytometry on M21-Gpiib, 10 µg/ml antibody; relative to second layer alone
[13] = target: T2, integrin αiibβ3 on M21-gpiib melanoma cells (UniProt P08514 32-1039; P05106 27-788); assay: as above
T2 construct: whole, on cells
Description: (§1) Cells in log growth were harvested using trypsin (0.5 μg/ml)/EDTA (0.2 μg/ml), washed in FACS buffer (PBS plus 0.9 mM CaCl₂; 0.5 mM MgCl₂; 0.5% w/v BSA), and incubated with anti-integrin antibodies (60 min; 4° C.; 10 μg/ml in FACS buffer). […] Cells were analyzed on a FACScan (Becton-Dickinson) and the mean intensity fluorescence (MIF) was normalized to the MIF of the negative control (cells stained with PI and secondary labeled antibody, without primary antibody).
(§2) The RabMabs were assessed in FACS compared to standard well characterized murine monoclonal antibodies.

[14] = target: T2, integrin αiibβ3 on M21-gpiib melanoma …; assay: live cell flow cytometry on M21-gpiib melanoma cells
Description: as §1, §2

[15] = target: T3, integrin αv chain on cells (human, UniProt P06756 31-1048); assay: live cell flow cytometry on HUVEC, 10 µg/ml antibody; relative to second layer alone
T3 construct: whole, on cells; Endogenous αv of live cells (FACS) or FFPE cells and xenografts (IHC); also called Human αv; αv-integrin
Description: as §1, §2

[16] = target: T3, integrin αv chain on cells; assay: live cell flow cytometry on M21, 10 µg/ml antibody; relative to second layer alone
Description: as §1, §2

[17] = target: T4, recombinant human integrin αvβ3 extracellular domain (DTM-αvβ3) (human, UniProt P06756 31-992); assay: ELISA, integrin coated at 1 µg/ml, antibody serially diluted
T4 construct: extracellular domain; Heterodimer made in High Five insect cells with baculovirus; also called Human αvβ3 ECD
Description: (§3) Recombinant integrins (1 μg/ml) were coated on microtiter plates by adsorption (4° C.; 16 h) from coating buffer (150 mM NaCl; 1 mM CaCl₂; 1 mM MgCl₂; 10 μM MnCl₂; 50 mM Tris-Cl; pH 7.5). The plates were washed (wash buffer: 0.5% BSA; 0.05% Tween 20 in PBS), blocked (1 h; 4° C.; 5% BSA in PBS), and incubated with primary antibodies serially diluted in wash buffer (1 h; 37° C.). After washing, secondary detection antibody (goat-anti-rabbit HRP; 1:5000) was added (1 h; 37° C.), followed by washing and detection using tetramethyl-benzidine (100 μg/ml) in citrate-phosphate buffer (pH 5.0), development with sulphuric acid, and reading against a reagent blank at 450 nm.

[18] = target: T5, recombinant human integrin αvβ5 extracellular domain (DTM-αvβ5) (human, UniProt P06756 31-992); assay: as above
T5 construct: extracellular domain; Heterodimer made in High Five insect cells; also called Human αvβ5 ECD
Description: as §3

[19] = target: T6, recombinant human integrin αvβ8 extracellular domain (DTM-αvβ8) (human, UniProt P06756 31-992); assay: as above
T6 construct: extracellular domain; Heterodimer made in High Five insect cells; also called Human αvβ8 ECD

[20] = target: recombinant human integrin αvβ6 extracellular domain (DTM-αvβ6) (human) (UniProt P18564); assay: as above
[21] = target: T3, integrin αv chain on cells; assay: live cell flow cytometry on M24Met, 10 µg/ml antibody; relative to second layer alone
Description: as §1, §2

[22] = target: T4, recombinant human integrin αvβ3 …; assay: ELISA, integrin coated at 1 µg/ml
Description: as §3

[23] = target: T7, full length human gpiibiiia purified from platelets (human, UniProt P08514 32-1039; P05106 27-788); assay: ELISA, integrin coated at 1 µg/ml
T7 construct: mature; Extracted from outdated human platelets with octylglucoside; also called intact αiibβ3; full length purified platelet gpiibiiia
Description: as §3

[24] = target: T4, recombinant human integrin αvβ3 …; assay: ELISA, hybridoma supernatants on recombinant αvβ3 against αvβ5 extracellular domains (FIG. 10)
[25] = target: T7, full length human gpiibiiia purified …; assay: ELISA, integrin coated at 1 µg/ml, antibody serially diluted
Description: as §3

[26] = target: T5, recombinant human integrin αvβ5 …; assay: ELISA, hybridoma supernatants on the recombinant αvβ5 extracellular domain (FIG. 10)
[27] = target: T8, integrin αvβ3 on cells (human, UniProt P06756 31-1048; P05106 27-788); assay: live cell flow cytometry on HUVEC, 10 µg/ml antibody; relative to second layer alone
T8 construct: whole, on cells; Endogenous integrin of live cells (FACS) or of formalin fixed paraffin embedded cells and xenografts (IHC); the cell line is named under assay; also called αvβ3 complex
Description: as §1, §2

[28] = target: T8, integrin αvβ3 on cells; assay: live cell flow cytometry on M21, 10 µg/ml antibody; relative to second layer alone
Description: as §1, §2

[29] = target: T8, integrin αvβ3 on cells; assay: live cell flow cytometry on M24Met, 10 µg/ml antibody; relative to second layer alone
Description: as §1, §2

Chain of integrin β1 chain on cells (P05556 21-798 limits assumed): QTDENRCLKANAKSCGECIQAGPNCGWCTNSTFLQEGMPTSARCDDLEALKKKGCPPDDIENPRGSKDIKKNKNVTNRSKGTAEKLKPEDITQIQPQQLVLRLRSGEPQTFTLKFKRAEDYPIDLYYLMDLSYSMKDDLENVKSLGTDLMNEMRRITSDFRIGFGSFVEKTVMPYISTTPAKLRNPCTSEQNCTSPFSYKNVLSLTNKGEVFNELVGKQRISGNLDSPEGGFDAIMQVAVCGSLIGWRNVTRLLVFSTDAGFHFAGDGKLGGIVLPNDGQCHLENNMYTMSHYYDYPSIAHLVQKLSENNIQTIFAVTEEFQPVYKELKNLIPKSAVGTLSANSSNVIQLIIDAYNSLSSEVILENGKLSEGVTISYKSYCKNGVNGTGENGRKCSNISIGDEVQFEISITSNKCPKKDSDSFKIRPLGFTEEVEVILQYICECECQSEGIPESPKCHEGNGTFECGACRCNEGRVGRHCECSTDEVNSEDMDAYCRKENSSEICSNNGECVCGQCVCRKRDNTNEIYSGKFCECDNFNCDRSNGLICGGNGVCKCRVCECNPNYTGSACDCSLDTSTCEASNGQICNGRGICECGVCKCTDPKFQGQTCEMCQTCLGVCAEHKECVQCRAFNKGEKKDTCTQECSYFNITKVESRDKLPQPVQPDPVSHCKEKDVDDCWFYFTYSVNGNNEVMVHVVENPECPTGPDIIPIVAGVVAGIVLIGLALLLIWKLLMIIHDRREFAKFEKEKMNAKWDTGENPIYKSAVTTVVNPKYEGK

For P1F6 (antibody), the rMIF [1] was 3.2, the rMIF [2] was 3.6 and the rMIF [3] was 2.7. It also gave a rMIF [4] of 3.8 and a rMIF [5] of 3.8.

P4C10 (antibody) was tested, and the rMIF [6] was 14.5, the rMIF [7] was 7.5 and the rMIF [8] was 7.2. For the same molecule, the rMIF [9] was 14, the rMIF [10] was 38.9 and the rMIF [11] was 12.1. For the same molecule, the rMIF [12] was 10.8.

B1: EM01309 (antibody, V domains shown)
VH: QSVEESGGRLVTPGTSLTLTCTVSGIDLTSNSLSWVRQAPGKGLEWIGAISSRATTYFAAWAKGRFTISRTSTTVDLRITSLTASDTATYFCGKFNLWGQGTLVTVSS
VL: AQVLTQTPSSVSAAVGGTVTINCQASQSVASNNALAWFQQKPGQPPKLLIYYASTLASGVPSRFKGSGSGTQFTLTISDLECADAATYYCLGGYDCRGTDCNVFGGGTEVVVKG
notes: Rabbit IgG monoclonal; Hybridoma and recombinant forms are kept as one molecule; also called E3875-013-9; E3875-13-9
For B1, the rMIF [13] was 1, the binding result [14] was “no binding (tested: 10 µg/ml)” and the rMIF [15] was 28.8. The rMIF [16] was 1.3, the IC50 [17] was 4.7 ng/mL and the IC50 [18] was 5.6 ng/mL. For the same molecule, the IC50 [19] was 4.1 ng/mL, the IC50 [20] was 4.9 ng/mL and the rMIF [21] was 2.5.

B2: EM09902 (antibody, V domains shown)
VH: QEQLEESGGGLVQPEGSLTLTCTVSGFPLRNVWISWVRQAPGKGLEWIGCIYTGRDWPYYASWAKGRFTISKSSSTTVTLQMTSLTATDTATYFCARIVYGGAGYRLWGPGTLVTVSS
VL: ALVMTQTPPSVEAAVGGTVTINCQASQDIGSDLAWYQQKPGQPPKLLIYSASSLASGVPSRFKASGSGTQFTLTISDVQCDDAATYSCAGYKSYSDDGHGFGGGTEVVVKG
notes: Rabbit monoclonal; Hybridoma and recombinant forms are kept as one molecule; also called E3536-99-1; E3536-99-2
In the case of B2, the rMIF [13] is reported as 1.9, the rMIF [3] is reported as 33.9 and the “cross-reactivity, fold in IC50 against the immunogen” value [22] is reported as ~100 fold. For the same molecule, the “cross-reactivity, fold in IC50 against the immunogen” value [23] was ~100 fold, the rMIF [4] was 7.2 and the “factor in apparent Kd, αvβ5 over αvβ3” value [24] was > 100 fold. The IC50 [17] was ~450 ng/mL, the IC50 [18] was 5.6 ng/mL and the IC50 [25] was ~400 ng/mL. For the same molecule, the rMIF [5] was 40.1 and the EC50 [26] was 50 pM.

B3: EM22703 (antibody, V domains shown)
VH: QSVKESEGGLFKPTDTLILTCTVSGFSLSSYGVSWVRQAPGNGLEYIGSISTTGITYYASWAKSRSTITRNTNLYTVTLKMTGLTAADTATYFCARGFPGHLRKPSDIWGPGTLVTVSA
VL: AQVLTQTPSSVSAAVGGTVSISCQSSESVYADIALSWFQQKPGQPPKLLIYGASTLASGVPSRFSGSGSGTEFTLTISDVQCDAAATYYCAGDYGAGTEPNLFGGGTEVVVSG
notes: Rabbit monoclonal; Hybridoma and recombinant forms are kept as one molecule
B3 showed a rMIF [13] of 56, a rMIF [27] of 12.4 and a rMIF [28] of 17.6. The IC50 [17] was 1.4 ng/mL, the IC50 [25] was 0.85 ng/mL and the rMIF [29] was 8.1.

B4: 17E6 (antibody, V domains shown)
VH: QVQLQQSGAELAEPGASVKMSCKASGYTFSSFWMHWVKQRPGQGLEWIGYINPRSGYTECNEIFRDKATMTADTSSSTAYMQLSGLTSEDSAVYYCASFLGRGAMDYWGQGTSVTVSS
VL: DIQMTQTTSSLSASLGDRVIISCRASQDISNYLSWYQQKPDGTVKLLIFYTSKLHSGVPSRFSGSGSGTDYSLTISNLDQEDIATYFCQQGNTFPYTFGGGTKVEMR
B4 gave a rMIF [16] of 9.3 and a rMIF [21] of 7.8.

B5: LM609 (antibody, V domains shown)
VH: EVQLVESGGGLVKPGRSLRLSCAASGFAFSSYDMSWVRQIPEKRLEWVAKVSSGGGSTYYLDTVQGRFTISRDNAKNTLYLQMSSLNSEDTAMYYCARHNYGSFAYWGQGTLVTVSA
VL: DIVLTQSPATLSVTPGDSVSLSCQASQSISNHLHWYQQKSHESPRLLIKYRSQSISGIPSRFSGSGSGTDFALSINSVETEDFGMYFCQQSGSWPHTFGGGTKLEIK
In the case of B5, the rMIF [27] is reported as 10.7, the rMIF [28] is reported as 9.1 and the rMIF [29] is reported as 4.9.
